Reference: the RNAGym collection of RNA variant scans (doi:10.7554/elife.80360)

B1: HDV Ribozyme (parent)
chain: GGCCGGCAUGGUCCCAGCCUCCUCGCUGGCGCCGGCUGGGCAACAUUCCGAGGGGACCGUCCCCUCGGUAAUGGCGAAUGGGACCCA

Variants of: B1
Assay: self-cleavage, relative activity (ratio to wild type); higher = more cleavage; co-transcriptional

| Variant | self-cleavage |
| --- | --- |
| GGCCGGCAUGGUCCCUGCCUCCUCGCUGGCGCCGGCUGGGCAACACUCCGAGGGGACCGUCCCCUCGGUAAUGGCGAAUGGGACCCA [A16U U46C] | 1.21 |
| GGCCGGCAUGGUCUCAGCCUCCUCGCUGGCGCCGGCUGGGCAACAUUCCGAGGGGAGCGUCCCCUCGGUAAUGGCGAAUGGGACCCA [C14U C57G] | 0.787 |
| GGCCGGCAUGGUGCCAGCCUACUCGCUGGCGCCGGCUGGGCAACAUUCCGAGGGGACCGUCCCCUCGGUAAUGGCGAAUGGGACCCA [C13G C21A] | 0 |
| GGCCGGCAUGGUCCCAGCCUCCUCGCUGGCGCCGGCUGGGCAACAUUCCGAGGGGUCCGUCCCCUCGGUAAUGGGGAAUGGGACCCA [A56U C75G] | 0.151 |
| GGCCGGCAUGGUCCCAGCCUCCUCGCUGGCGCCGGCUGGGCACGAUUCCGAGGGGACCGUCCCCUCGGUAAUGGCGAAUGGGACCCA [A43C C44G] | 0.458 |
| GUCCGGCAUGGUCCCAGCCUCCUCGCUGGCGCCGGCUGGGCAACAUUCCGAGGGGACCGUCCCCUCGGUAAUGGCAAAUGGGACCCA [G2U G76A] | 0.112 |
| GGCCGGCAUGGUCCCAGCCUCCUCGCUGGCGCCGGCUGGGCAACAUUCCGAGAGGACCGUCCCCUCGGUAAUGGCAAAUGGGACCCA [G53A G76A] | 1.16 |
| GGCCGGCAUGGUCCCAGCCUCCUCGCUGGCGCCGGCUGGGCAAAAUUCCGAGGGGGCCGUCCCCUCGGUAAUGGCGAAUGGGACCCA [C44A A56G] | 0.875 |
| GGCCGGCAUGGUCCCUGCCUCCUCGCUGGCGCCGGCUGGGCAACAUUCCGAGGGGUCCGUCCCCUCGGUAAUGGCGAAUGGGACCCA [A16U A56U] | 1.15 |
| GGCCGGCAAGGUCCCAGCCUCCUCGCUGGCGCCGGCUGGGCAACAUUCCGACGGGACCGUCCCCUCGGUAAUGGCGAAUGGGACCCA [U9A G52C] | 1.16 |
| GGCCGGCAUGGUCCCCGCCUCCUCGCUGGCGCCGGCUGGGCAACAUUCCGAGGGGACCGUCGCCUCGGUAAUGGCGAAUGGGACCCA [A16C C62G] | 0.403 |
| GGCCGGCAUGGUCCCAGCCUCCUCGCUGGCGCCGGCUGGGCAACCUUCCGUGGGGACCGUCCCCUCGGUAAUGGCGAAUGGGACCCA [A45C A51U] | 0.72 |
| GGCCGGCAGGGUCCCAGCCUCCUCGCUGGCGCCGGCUGGGCAACAUUCCGAGGGGACCGUCCCAUCGGUAAUGGCGAAUGGGACCCA [U9G C64A] | 0.831 |
| GGCCGGCUUGGUCCCAGCCUCCUCGCUGGCGCCGGCUGGGGAACAUUCCGAGGGGACCGUCCCCUCGGUAAUGGCGAAUGGGACCCA [A8U C41G] | 0.506 |
| CGCCGGCAUGGUCCCAGCCUCCUCGCUGGCGCCGGCUGGGCAACAUUCCGAGGGGACCGACCCCUCGGUAAUGGCGAAUGGGACCCA [G1C U60A] | 0.237 |
| GGCCGGCAUGGUCCCAGCCUCCUCGCUGGCGCUGGCUGGGCAACAUUCCGAGGGGACCGUCCCCUCGGUAAUGGCGAAAGGGACCCA [C33U U79A] | 0.684 |
| GGCCGGCAUGGUCCCAGCCUCCUCGCUGGCGCCGGCUGGGCAACAUUCCGAGGGGACCGUCCCCUCGAUAAUGGGGAAUGGGACCCA [G68A C75G] | 0.0875 |
| GGCCGGCAUGGUCCCAGACUCCUCGCUGGCGCCGGCUGGGCAACAUUCCGAGGGGACCGUCCCCUCGGUAAUCGCGAAUGGGACCCA [C18A G73C] | 0.0396 |
| GGCGGGCAUGGUCCCAGCCUCCUCGCUGGCGCCGGCUGGGCAACAUUCCGAGGGGACCGUCCCCUCGGUAAUGGCGAAUGGGACCCA [C4G] | 0.376 |
| GGCCGGCAUGGUCCCAGCCUCCUCGCUGGCGCCGGCUUGGCAACAUUCCGAGGGGACCGUCCCCCCGGUAAUGGCGAAUGGGACCCA [G38U U65C] | 0.415 |
| GGCCGGCAUGGUCCCAGCCUCCUCGCUGUCGCUGGCUGGGCAACAUUCCGAGGGGACCGUCCCCUCGGUAAUGGCGAAUGGGACCCA [G29U C33U] | 0.0563 |
| GGCCGGCAUGGUCCCAGCCUCCUCGCUGGCGCCGGCUGGGCAACAUUCCGAGGGGACUGUCCCCUCGGUAAUGCCGAAUGGGACCCA [C58U G74C] | 0.227 |

| Variant | self-cleavage |
| --- | --- |
| GGCCGGCAUGGUCCCAGCCUCCUCGCUGGCGCCGGCUGGGCAACCUUCCGAGGGGACCGUCCCCUCGUUAAUGGCGAAUGGGACCCA [A45C G68U] | 0.604 |
| GGCCGGUAUGGUCCCAGCCUCCUCGCUGGCGCCGGCUGGGCAACAUUCCGAGGGGACCGUCCCCUCGGUAAUGGCGAAUGGGAACCA [C7U C84A] | 1.14 |
| GGCCGCCAUGGUCCCAGCCUCCUCGCUGGCGCCGGCUGGGCAACAUUCCGAGGGGACCGCCCCCUCGGUAAUGGCGAAUGGGACCCA [G6C U60C] | 0.453 |
| GGCCGGCAUGGUCCCAGCCUCCUCGCUGGCGCCGGCUGGGCAACAUUCCGAGGGGACCGUCCCCUCAGUAGUGGCGAAUGGGACCCA [G67A A71G] | 1.05 |
| GGCCGGCAUGGUCCCAGCCUCCUCGCUGGCGCCGGCUGGGCAACAUCCCGAGGGGACCGUCCCCUCGGUAAUGGCGAAUGCGACCCA [U47C G81C] | 0.151 |
| GGCCGGCAUGGUCCCAGCCUCCUCGAUGGCGCCGGGUGGGCAACAUUCCGAGGGGACCGUCCCCUCGGUAAUGGCGAAUGGGACCCA [C26A C36G] | 0.196 |
| GGCCGGCAUGGUCCCAGCCUCCUCGCUGGCGCCGGCUGGGCAACAUUCCGAGGGGACGGUCCCCUGGGUAAUGGCGAAUGGGACCCA [C58G C66G] | 0.95 |
| GGCCGGCAUGGUCCCAGCCUCCUCGUUGGCGCCGGCUGGGCAACAUUCCGAGGGGAGCGUCCCCUCGGUAAUGGCGAAUGGGACCCA [C26U C57G] | 0.932 |
| GGCCGGCAUGGUCCCAGCCUACUCGCUGGCGCCGGCUGGGCAACAUUCCGAGGGGACCGUCCCCUCGGUAAUGGCGAAUGUGACCCA [C21A G81U] | 0.0665 |
| GGCCGGCAUGGUCCCAGCGUCCUCGCUGGCGCCGGCUGGGCAACAUUGCGAGGGGACCGUCCCCUCGGUAAUGGCGAAUGGGACCCA [C19G C48G] | 0.148 |
| GGCCGGCAUGGUCCCAGCCUCCUCGCUGGAGCCGGCUUGGCAACAUUCCGAGGGGACCGUCCCCUCGGUAAUGGCGAAUGGGACCCA [C30A G38U] | 0.107 |
| GGCCGGCAUGGUCCCAGCCUCCUCGCUGGCGCCGGCUGGGCAACAUUCCGAGGGGGCCGUCCCCUCGGUAAUGGCGAAAGGGACCCA [A56G U79A] | 0.277 |
| GGCCGGCAUGGUCCCAGCCUCCGCGCGGGCGCCGGCUGGGCAACAUUCCGAGGGGACCGUCCCCUCGGUAAUGGCGAAUGGGACCCA [U23G U27G] | 0.529 |
| GGCCGGCAUGGUCCAAGCCUCCUCGCUGGCGCCGGCUGGGCAAAAUUCCGAGGGGACCGUCCCCUCGGUAAUGGCGAAUGGGACCCA [C15A C44A] | 0.529 |
| GGCCGGCAUGGUCCCAGCCUCCUCGCUGGCGCCGGCUGCGCAACAUUCCGAGGGGACCGUCCCCUCGGUAAUGGCGAAUGAGACCCA [G39C G81A] | 0.185 |
| GGCCGGCAUAGUCGCAGCCUCCUCGCUGGCGCCGGCUGGGCAACAUUCCGAGGGGACCGUCCCCUCGGUAAUGGCGAAUGGGACCCA [G10A C14G] | 0.166 |
| GGACGGCAUGGUCCCAGCCUCCUCGCUGGCGCCGGCUGGGCAACAUUCCGAGGGGACCGUCCCCUCGGUAAUGGAGAAUGGGACCCA [C3A C75A] | 0.0784 |
| GGCCGGCAUGGUCCCAGCCUCCUCGCUGGCCCCGGCUGGGCAACAUUCCGAGGGGACCGUCCCCUCGAUAAUGGCGAAUGGGACCCA [G31C G68A] | 0.372 |
| GGCCGGCAUGGUCCCGGCCUCCUCGCUGGCGCCGGCUGGGCAACAUUCCGAGAGGACCGUCCCCUCGGUAAUGGCGAAUGGGACCCA [A16G G53A] | 1.04 |
| GGCCGGCAUGGUCCCAGCCUCCUCGCUGGCGCCGGCUGGGCAACAUUCCGAGGGGAGCGUCCCCUCGGUAAUGGCGAACGGGACCCA [C57G U79C] | 0.598 |
| GGCCGGCAUGAUCCCAGCCUCCUCGCUUGCGCCGGCUGGGCAACAUUCCGAGGGGACCGUCCCCUCGGUAAUGGCGAAUGGGACCCA [G11A G28U] | 0.0339 |
| GGCCGGCAUGGGCCCAGCCUCCUCGCUGGCGCCGACUGGGCAACAUUCCGAGGGGACCGUCCCCUCGGUAAUGGCGAAUGGGACCCA [U12G G35A] | 0.19 |

| Variant | self-cleavage |
| --- | --- |
| GGCCGGGAUGGUCCCACCCUCCUCGCUGGCGCCGGCUGGGCAACAUUCCGAGGGGACCGUCCCCUCGGUAAUGGCGAAUGGGACCCA [C7G G17C] | 0 |
| GGCCGGCAUGGUCCCAGCCUCCUCGAUGUCGCCGGCUGGGCAACAUUCCGAGGGGACCGUCCCCUCGGUAAUGGCGAAUGGGACCCA [C26A G29U] | 0.032 |
| GGCCGGCAUGGUCCCAGCCUCGUCGCUGGCACCGGCUGGGCAACAUUCCGAGGGGACCGUCCCCUCGGUAAUGGCGAAUGGGACCCA [C22G G31A] | 0.121 |
| GGCCGACAUGGUCCCAGCCUCCUCGCUGGCGCCGGCUGGGCAACAUUCCGAGGGGACCGUCCUCUCGGUAAUGGCGAAUGGGACCCA [G6A C63U] | 0.743 |
| GGCCGGCAUGGUCCCAGCCUCCUCGCUGGCGCCGGCAGGGUAACAUUCCGAGGGGACCGUCCCCUCGGUAAUGGCGAAUGGGACCCA [U37A C41U] | 0.403 |
| GGCCGGCAUGGUCCCAGCCUCCUCGCUGGAGCCGGCUGGGCAACAUUCCGAGGGGACAGUCCCCUCGGUAAUGGCGAAUGGGACCCA [C30A C58A] | 0.623 |
| GGCCGGCAUGGUCCCAGCCUCCUCGCUGGCGCCGUCUGGGCAACAUUCCGAGGGGACCGUCCCCUCGGUAAUGGCGAAUGGGACCCG [G35U A87G] | 0.257 |
| GGCCGGCAUGGUCUCAGCCCCCUCGCUGGCGCCGGCUGGGCAACAUUCCGAGGGGACCGUCCCCUCGGUAAUGGCGAAUGGGACCCA [C14U U20C] | 0.133 |
| GGCCGGCAUGCUCCCAGCCUCCUCGCUGGCGCCGGCUGGGAAACAUUCCGAGGGGACCGUCCCCUCGGUAAUGGCGAAUGGGACCCA [G11C C41A] | 0.185 |
| GGCCGGCAUGGUCCCAGCUUCCUCGCUGGCGCCGGCUGGGCAACAUUCCGAGGGGACCGUCCCCUCGGUAAUAGCGAAUGGGACCCA [C19U G73A] | 0.122 |
| GGCCGGCAUGGUCCCAGCCUCCUCGCUGGCGCCCGCUGGGCAACAUUCCGAGGGGACCGUCCCCUCGGUAACGGCGAAUGGGACCCA [G34C U72C] | 0.19 |
| GGCCGGCAUGGUCCCAGCCUCCUCACUGGCGCCGGGUGGGCAACAUUCCGAGGGGACCGUCCCCUCGGUAAUGGCGAAUGGGACCCA [G25A C36G] | 0.0997 |
| GGCCGGCAUGGUCCCAGCCUCCUCGCUGGCGCCGGCUGGGCAACAUUCCAAGGGGACCGUCCCCUCGGUAAUGGGGAAUGGGACCCA [G50A C75G] | 0.0852 |
| GGCCGGCAUGGUCCCAGCCUCCUCGCUGGCGCCGGCUGGGCAACAUUCCGAGGGGACCGUCCCCUCGGUAAUGGCCAAUGGAACCCA [G76C G82A] | 0.432 |
| GGCCGGCAUGGUCCCAGCCUCCUCGCUGGCGCCGGCUGGGUAACAUUCCGAGGGGACUGUCCCCUCGGUAAUGGCGAAUGGGACCCA [C41U C58U] | 1.17 |
| GGCCGGCAUGGUCCCAGCUUCCUCGCUGGCGCCGGCUGCGCAACAUUCCGAGGGGACCGUCCCCUCGGUAAUGGCGAAUGGGACCCA [C19U G39C] | 0.133 |
| GGCCGGCAUGGUCCCAGCCUCCUCGCUGGCGCCGGCUGGGCAACCUUCCGAGGGGACCGUCCCCUCGGUAAUUGCGAAUGGGACCCA [A45C G73U] | 0.193 |
| GGCCGGCAUGGUCCCAGCCUCCUCGCUGGCGCCGGAUGGGCAAUAUUCCGAGGGGACCGUCCCCUCGGUAAUGGCGAAUGGGACCCA [C36A C44U] | 0.208 |
| GGCCGGCAUGGUACCAGCCACCUCGCUGGCGCCGGCUGGGCAACAUUCCGAGGGGACCGUCCCCUCGGUAAUGGCGAAUGGGACCCA [C13A U20A] | 0.0811 |
| GGCCGGCAUGGUCCAAGCCUCCUCGCUGGCGCCGGCUGGGCAACAUUCCGAGGGGACCGUCCCCUCGGUAAUGGCGAAAGGGACCCA [C15A U79A] | 0.519 |
